Experimental data: publication PMC4395007

Target: BG505 SOSIP.664 gp140 trimer (HIV-1) (UniProt Q2N0S6)
Test: negative-stain electron microscopy

In the case of CAP256-VRC26.09 Fab, the stoichiometry N (Fab per trimer) is reported as 1.
